Measurements as given in patent US20240174744A1 (SCIRHOM, published 2024).

T1: hiR2-FL-I566E-T7 (human iRhom2 full length I566E, 3 x T7 tag) (human, UniProt Q6PJF5 1-856)
T1 sequence: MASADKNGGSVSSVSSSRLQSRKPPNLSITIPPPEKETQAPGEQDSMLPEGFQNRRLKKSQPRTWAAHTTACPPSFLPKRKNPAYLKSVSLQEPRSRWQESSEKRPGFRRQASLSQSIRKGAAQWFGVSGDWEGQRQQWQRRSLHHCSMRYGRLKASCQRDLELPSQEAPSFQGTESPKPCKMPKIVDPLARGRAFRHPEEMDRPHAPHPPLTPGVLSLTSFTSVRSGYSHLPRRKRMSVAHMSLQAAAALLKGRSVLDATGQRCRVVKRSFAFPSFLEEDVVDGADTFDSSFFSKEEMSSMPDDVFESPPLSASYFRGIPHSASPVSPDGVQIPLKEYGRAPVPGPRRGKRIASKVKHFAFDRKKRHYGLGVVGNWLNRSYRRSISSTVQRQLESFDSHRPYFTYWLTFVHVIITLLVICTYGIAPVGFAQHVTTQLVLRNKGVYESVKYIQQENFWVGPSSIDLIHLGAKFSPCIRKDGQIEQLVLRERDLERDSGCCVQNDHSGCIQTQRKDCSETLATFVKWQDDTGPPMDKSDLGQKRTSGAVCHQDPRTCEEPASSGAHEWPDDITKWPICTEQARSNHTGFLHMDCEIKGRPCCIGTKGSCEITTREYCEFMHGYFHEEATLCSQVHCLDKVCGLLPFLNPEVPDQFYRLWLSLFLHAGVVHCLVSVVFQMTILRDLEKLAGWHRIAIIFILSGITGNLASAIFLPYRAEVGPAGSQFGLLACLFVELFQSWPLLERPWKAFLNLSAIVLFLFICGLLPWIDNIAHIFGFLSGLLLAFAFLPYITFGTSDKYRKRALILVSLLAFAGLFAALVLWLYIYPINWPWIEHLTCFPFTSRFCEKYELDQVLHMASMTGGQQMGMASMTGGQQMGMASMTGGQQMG

B1: antibody 34 (antibody, V domains shown)
VH: QVTLKESGPGILQPSQTLSLTCSFSGFSLSTFSLGVGWIRQSSGKGLEWLAHIWWDDEKYYNPALKSRLTISKDTSKNQVFLKIANVDAADTATYYCARAYYSKSYYALDYWGQGTSVTVSS
VL: DIQMTQSPSSLSASLGERVSLTCRASQEISGYLSWLQQKPDGTIKRLIYAASTLDSGVPKRFSGSRSGSDYSLAISSLESEDFADYYCLQYANFPFTFGSGTKLEIK
notes: Mouse IgG, kappa light chain; also called clone #34; m34
B2: antibody 43 (antibody, V domains shown)
VH: QVALKESGPGILQPSQTLSLTCSFSGFSLSTFGMGVGWIRQSSGKGLEWLANIWWDDDKYYNPALKSRLTISKDASKNQAFLKIANVDTADTATYYCARIGNYGSNYWYFDVWGTGTTVTVSS
VL: QIVLTQSPAIMSASPGERVTMTCSANSRISYMYWYQQKPGSSPRLLIYDTSNLASGVPVRFSGSGSGTSYSLTISRMEAEDAATYNCQQWSSYPLTFGAGTKLELK
notes: Mouse IgG, kappa light chain; also called clone #43
B3: antibody 44 (antibody, V domains shown)
VH: QVTLKESGPGILQPSQTLSLTCSFSGFSLSTFGMGVGWIRQPSEKGLEWLAHIWWDDDKYYNPALKSRLTISKDTSKNQIFLKITNVDTAETATYYCSRIGNYGSNYWYFDVWGTGTTVTVSS
VL: QIVLTQSPAVMSASPGEKVTMTCTASSSVYYMYWYQQTPGSSPRLLIYDTSNLASGVPVRFSGSGSGTSYSLTISRMEAEDAATYYCQQWNTYPLTFGAGTKLELK
notes: Mouse IgG, kappa light chain; also called clone #44; m44
B4: antibody 42 (antibody, V domains shown)
VH: QVTLKESGPGILQPSQTLSLTCSLSGFSLSTFGRGVGWIRQPSGKGLEWLAHIWWDDEKYYNPALKSRLTISKDTSKNQVFLRIANVDTADTATYYCARIQNYGSNYWYFDVWGTGTTVTVSS
VL: LIVLTQSPAIMSASPGEKVTMTCGATSRISYMFWYQQKPGSSPRVLIYDTSNLASGVPVRFSGSGSGTSYSLTISRVEAEDVATYYCQQWNSYPLTFGAGTKLELK
notes: Mouse IgG, kappa light chain; also called clone #42; m42
B5: antibody 22 (antibody, V domains shown)
VH: QVTLKESGPGILQPSQTLSLTCSFSGFSLSTFGMGVGWIRQPSGKGLEWLAHIWWDDEKYYNSALKSRLTISKATSKNQVFLKIANVDTADTATYYCARISNYGSNYWYFNVWGTGTTVTVSS
VL: QVVLTQSPALMSASPGEKVTMTCSAGSSVSYMYWYQQKPGSSPRVLIYDTSNLASGVPARFTGSGSGTSYSLTISRMEAEDAATYYCQQWNSYPLTFGAGTKLELK
notes: Mouse IgG, kappa light chain; also called clone #22; m22

target: T1, hiR2-FL-I566E-T7 (human iRhom2 full …); assay: FACS on cells of the row I566E, vs human iR2 wild type = 100%
Source text: In brief, immortalized MEF-DKO hiR2-FL-G563D-T7, MEF-DKO hiR2-FL-A564P-T7, MEF-DKO hiR2-FL-I566E-T7, MEF-DKO hiR2-FL-D569E-T7, MEF-DKO hiR2-FL-E579K-T7, MEF-DKO hiR2-FL-Q580N-T7, MEF-DKO hiR2-FL-A581S-T7, MEF-DKO hiR2-FL-R582A-T7, MEF-DKO hiR2-FL-S583G-T7, MEF-DKO hiR2-FL-G587N-T7, MEF-DKO hiR2-FL-F588H-T7, MEF-DKO hiR2-FL-L589P-T7, MEF-DKO hiR2-FL-E594V-T7, MEF-DKO hiR2-FL-K596T-T7, MEF-DKO hiR2-FL-S607R-T7, MEF-DKO hiR2-FL-T612S-T7, MEF-DKO hiR2-FL-E617D-T7, MEF-DKO hiR2-FL-H620R-T7, MEF-DKO hiR2-FL-L636M-T7, MEF-DKO hiR2-FL-K638D-T7, MEF-DKO hiR2-FL-I771F-T7, MEF-DKO hiR2-FL-I825V-T7, MEF-DKO hiR2-FL-I828V-T7, MEF-DKO hiR2-FL-N829R-T7, MEF-DKO hiR2-FL-W830C-T7, MEF-DKO hiR2-FL-P831E-T7, MEF-DKO hiR2-FL-1833C-T7, MEF-DKO hiR2-FL-H835F-T7, MEF-DKO hiR2-FL-F839I-T7, MEF-DKO hiR2-FL-S843D-T7, MEF-DKO hiR2-FL-Q853A-T7, MEF-DKO hiR2-FL-V854Q-T7 and MEF-DKO hiR2-FL-R844K-T7 cells were harvested with 10 mM EDTA in PBS, washed and resuspended in FACS buffer (PBS, 3% FBS, 0.05% sodium azide), and seeded in Nunc U-bottom 96-well plates (Thermo Fisher Scientific, USA) at approximately 1×10⁵ cells per well. To pellet cells and remove supernatants, the plates were centrifuged at 1,500 rpm and 4° C. for 3 minutes. For primary staining, cells were resuspended in 100 μl per well of either FACS buffer alone (controls) or the purified antibodies 3, 5, 16, 22, 34, 42, 43, 44, 48, and 50 of the present disclosure at 3 μg/ml in FACS buffer and incubated on ice for 1 hour. Afterwards, plates were centrifuged at 1,500 rpm and 4° C. for 3 minutes and washed twice with 200 μl per well of FACS buffer. For secondary staining, cells were spun down and resuspended in 100 μl per well of PE-conjugated goat anti-mouse IgG F(ab′)2 detection fragment (Dianova, Germany) diluted 1:100 in FACS buffer. Protected from light, the cell suspensions were incubated on ice for 1 hour. Plates were then centrifuged at 1,500 rpm and 4° C. for 3 minutes and washed three times with 200 μl per well of FACS buffer. Finally, cells were resuspended in 150 μl per well of FACS buffer and analyzed using a BD Accuri™ C6 Plus flow cytometer (Becton Dickinson, Germany).

Binder	grade of loss of binding vs wild type
B1	2 grade (2 => 60% loss of binding vs wild type)
B2	2 grade (2 => 60% loss of binding vs wild type)
B3	2 grade (2 => 60% loss of binding vs wild type)
B4	2 grade (2 => 60% loss of binding vs wild type)
B5	2 grade (2 => 60% loss of binding vs wild type)
